The values below come from patent US20150119475.

The series addresses Snail protein (SNAI1/Snail, expressed as GST fusion in E. coli, GST moiety cleaved with thrombin), O95863.

Sequence of Snail protein (SNAI1/Snail, expressed as GST fusion in E. coli, GST moiety cleaved with thrombin), O95863 (O95863 whole entry, the tested form may be a part): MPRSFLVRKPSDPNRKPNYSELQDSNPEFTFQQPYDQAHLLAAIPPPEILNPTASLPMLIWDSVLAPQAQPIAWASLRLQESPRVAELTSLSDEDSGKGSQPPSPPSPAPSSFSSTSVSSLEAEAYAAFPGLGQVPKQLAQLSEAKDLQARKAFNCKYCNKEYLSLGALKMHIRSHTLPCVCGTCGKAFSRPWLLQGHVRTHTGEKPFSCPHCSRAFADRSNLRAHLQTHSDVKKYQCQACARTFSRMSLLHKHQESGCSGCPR

B1: recombinant Akt1 (ProQinase GmbH) (protein)
chain: VADGLKKQEEEEMDFRSGSPSDNSGAEEMEVSLAKPKHRVTMNEFEYLKLLGKGTFGKVILVKEKATGRYYAMKILKKEVIVAKDEVAHTLTENRVLQNSRHPFLTALKYSFQTHDRLCFVMEYANGGELFFHLSRERVFSEDRARFYGAEIVSALDYLHSEKNVVYRDLKLENLMLDKDGHIKITDFGLCKEGIKDGATMKTFCGTPEYLAPEVLEDNDYGRAVDWWGLGVVMYEMMCGRLPFYNQDHEKLFELILMEEIRFPRTLGPEAKSLLSGLLKKDPKQRLGGGSEDAKEIMQHRFFAGIVWQHVYEKKLSPPFKPQVTSETDTRYFDEEFTAQMITITPPDQDDSMECVDSERRPHFPQFSYSASGTA
As to B1, the “in vitro kinase assay with 32P-ATP, detected by autoradiography” value is “Akt1 and Akt3 kinases are able to directly phosphorylate Snail protein”.
